From patent publication US20210355178A1 (published 2021)
One block for each binder: values may come before it.

Biological target: complement factor C3b (UniProt P01024 23-667; P01024 749-1663)
Experiment: SPR; steady-state fit

complement factor C3b, sequence (P01024 23-667, chain 1 of 2): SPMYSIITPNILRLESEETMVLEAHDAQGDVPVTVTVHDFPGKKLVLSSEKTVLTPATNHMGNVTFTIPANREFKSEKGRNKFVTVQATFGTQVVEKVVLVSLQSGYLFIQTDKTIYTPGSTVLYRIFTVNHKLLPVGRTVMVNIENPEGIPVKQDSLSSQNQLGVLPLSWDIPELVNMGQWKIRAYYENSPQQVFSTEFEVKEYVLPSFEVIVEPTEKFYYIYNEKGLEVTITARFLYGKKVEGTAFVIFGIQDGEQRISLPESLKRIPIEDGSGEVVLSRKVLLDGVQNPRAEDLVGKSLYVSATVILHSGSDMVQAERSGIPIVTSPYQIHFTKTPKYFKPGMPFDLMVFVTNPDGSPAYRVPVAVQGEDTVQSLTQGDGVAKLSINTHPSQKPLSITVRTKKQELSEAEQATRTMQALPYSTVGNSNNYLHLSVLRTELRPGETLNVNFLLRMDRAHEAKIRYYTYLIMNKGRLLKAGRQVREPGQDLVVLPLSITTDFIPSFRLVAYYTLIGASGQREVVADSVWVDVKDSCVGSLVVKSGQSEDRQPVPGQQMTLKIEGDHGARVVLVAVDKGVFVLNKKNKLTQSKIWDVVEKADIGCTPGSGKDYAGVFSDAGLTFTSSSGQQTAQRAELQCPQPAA
complement factor C3b, sequence (P01024 749-1663, chain 2 of 2): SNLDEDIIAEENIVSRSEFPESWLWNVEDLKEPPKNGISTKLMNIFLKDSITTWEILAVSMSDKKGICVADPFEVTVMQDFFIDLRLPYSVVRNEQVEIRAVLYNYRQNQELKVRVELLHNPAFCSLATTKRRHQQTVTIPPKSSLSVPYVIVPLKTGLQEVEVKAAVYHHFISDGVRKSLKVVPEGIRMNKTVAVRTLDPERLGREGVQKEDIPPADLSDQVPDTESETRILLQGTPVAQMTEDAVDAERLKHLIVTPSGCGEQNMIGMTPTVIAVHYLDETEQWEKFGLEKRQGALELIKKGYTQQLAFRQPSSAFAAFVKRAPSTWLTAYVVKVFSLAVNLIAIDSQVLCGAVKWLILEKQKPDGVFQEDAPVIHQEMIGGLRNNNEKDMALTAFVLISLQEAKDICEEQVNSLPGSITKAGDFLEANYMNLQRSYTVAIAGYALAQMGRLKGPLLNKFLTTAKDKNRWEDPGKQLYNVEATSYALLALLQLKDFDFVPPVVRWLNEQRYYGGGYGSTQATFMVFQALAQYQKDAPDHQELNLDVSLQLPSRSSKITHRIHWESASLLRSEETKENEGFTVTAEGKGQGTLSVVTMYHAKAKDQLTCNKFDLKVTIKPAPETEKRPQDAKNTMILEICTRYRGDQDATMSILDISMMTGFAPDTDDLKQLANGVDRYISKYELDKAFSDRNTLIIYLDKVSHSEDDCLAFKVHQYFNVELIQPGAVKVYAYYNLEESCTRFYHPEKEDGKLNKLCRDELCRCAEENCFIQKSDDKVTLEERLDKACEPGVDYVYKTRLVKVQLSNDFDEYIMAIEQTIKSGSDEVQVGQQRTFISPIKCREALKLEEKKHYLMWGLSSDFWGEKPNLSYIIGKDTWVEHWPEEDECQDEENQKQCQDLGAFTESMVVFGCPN

Kd: 588 nM
B1: miniFH (designed binder)
chain: EDCNELPPRRNTEILTGSWSDQTYPEGTQAIYKCRPGYRSLGNIIMVCRKGEWVALNPLRKCQKRPCGHPGDTPFGTFTLTGGNVFEYGVKAVYTCNEGYQLLGEINYRECDTDGWTNDIPICEVVKCLPVTAPENGKIVSSAMEPDREYHFGQAVRFVCNSGYKIEGDEEMHCSDDGFWSKEKPKCVEISCKSPDVINGSPISQKIIYKENERFQYKCNMGYEYSERGDAVCTESGWRPLPSCEEAGGGGGGGGGGGGGKCGPPPPIDNGDITSFPLSVYAPASSVEYQCQNLYQLEGNKRITCRNGQWSEPPKCLHPCVISREIMENYNIALRWTAKQKLYSRTGESVEFVCKRGYRLSSRSHTLRTTCWDGKLEYPTCAKR

Kd: 300 nM
B2: miniFH-Fc (Fc fusion)
chain: EDCNELPPRRNTEILTGSWSDQTYPEGTQAIYKCRPGYRSLGNIIMVCRKGEWVALNPLRKCQKRPCGHPGDTPFGTFTLTGGNVFEYGVKAVYTCNEGYQLLGEINYRECDTDGWTNDIPICEVVKCLPVTAPENGKIVSSAMEPDREYHFGQAVRFVCNSGYKIEGDEEMHCSDDGFWSKEKPKCVEISCKSPDVINGSPISQKIIYKENERFQYKCNMGYEYSERGDAVCTESGWRPLPSCEEAGGGGGGGGGGGGGKCGPPPPIDNGDITSFPLSVYAPASSVEYQCQNLYQLEGNKRITCRNGQWSEPPKCLHPCVISREIMENYNIALRWTAKQKLYSRTGESVEFVCKRGYRLSSRSHTLRTTCWDGKLEYPTCAGPGGGGGPGCPAPELLGGPSVFLFPPKPKDTLMISRTPEVTCVVVDVSHEDPEVKFNWYVDGVEVHNAKTKPREEQYQSTYRVVSVLTVLHQDWLNGKEYKCKVSNKALPAPIEKTISKAKGQPREPQVYTLPPSREEMTKNQVSLTCLVKGFYPSDIAVEWESNGQPENNYKTTPPVLDSDGSFFLYSKLTVDKSRWQQGNVFSCSVMHEALHNHYTQKSLSLSPGGGGGGG
